Marks after values point to notes of the source that are not given here. Residues, ends and D or L forms follow the SMILES beside them. No end group written: not given here.
Columns and labels:
[1] = Circular dichroism (CD) helicity of peptides and dirhodium adducts; type: physicochemical; settings: for [θ]220, residual molar ellipticity: CD at 220 nm, water; for effect of dirhodium binding on helicity (in words): CD spectroscopy; for fH, helicity content: calculated from [θ]220, fH = ([θ]220 − [θ]c)/([θ]inf − [θ]c); for Rel. Hel %, relative helicity: calculated with [θ]inf = [θ]220 of EE4-Rh2(OAc)2; for fH (TFE), helicity content: calculated with [θ]inf = [θ]220 of EE4 in 100% TFE
Method: Peptides were prepared having 18 amino acids and a propensity toward helicity due to an alanine-rich sequence (Table 1). A complete turn of an α-helix requires about three or four amino acids, so carboxylate side chains (Asp, Glu) were placed in an i, i+3 or an i, i+4 relationship.
The peptides reacted with cis-Rh2(OAc)2(TFA)2, producing adducts with bridging dirhodium centers for both i, i+3 and i, i+4 carboxylate spacing. Circular dichroism (CD) spectroscopy assessed the effect of dirhodium binding on helicity.

bZip domain of c-Fos = molecular target: T1, bZip domain of c-Fos (Homo sapiens, UniProt P01100, A167K/D174T/K188A/T181D); assay: Covalent modification of c-Fos with diazo reagent 1 catalysed by metallopeptide; type: biochemical; settings: for c-Fos residue modified: MS/MS fragmentation analysis; for conversion of c-Fos: 45 h, metallopeptide and diazo 1 added in small portions
T1 sequence (P01100 162-193 A167K/D174T/T181D/K188A limits assumed): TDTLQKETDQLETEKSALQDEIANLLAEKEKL
Method: FIG. 5. MALDI-TOF MS spectra of c-Fos (SEQ ID NO: 15) modification catalyzed by Jun(Rh2) (A) (SEQ ID NO: 14) and Max(Rh2) (B)(SEQ ID NO: 16). Reactions were 100 μM in substrate at pH 6.5. Metallopeptide and diazo 1 were added portion-wise to final concentrations of 200 μM and 5 mM, respectively. Sequences illustrate the expected alignment of the coiled coils and the site of modification (B) In the inset table, the ratio in parentheses indicates the ratio of singly to doubly modified product.
Metallopeptide Jun(Rh2) was prepared based on an affinity-optimized c-Jun variant with glutamate residues in g and […] positions. The target was the bZip domain of c-Fos, an oncogene product that regulates transcription by forming a heterodimeric coiled coil with c-Jun.
(§1) Purified Jun variant was metalated with Rh2(OAc)2(tfa)2 in aqueous buffer. […] In initial studies at 4° C., crude Jun(Rh2) directly from the metalation process could be used in modification reactions with activity identical to that of purified material, thus avoiding time-consuming and unnecessary material loss that accompanied isolation.
Catalytic activity was also investigated for a second metallopeptide based on the leucine-zipper Max.
For Jun(Rh2), MALDI-TOF MS/MS analysis established that Gln19 (position e) was modified. […] In the case of Max(Rh2), the dominant fragmentation pathway was cleavage of the modifying group.

Solubility on isolation = type: physicochemical; settings: isolation after metalation in aqueous buffer
Method: as §1

K3a,eRh2 = assay: Covalent modification of E3gX peptides with diazo reagent 1 catalysed by K3a,eRh2; type: biochemical; settings: for krel, relative modification rate: initial rate of product formation at 1 hour, corrected for catalyst concentration; for modification of variable residue (in words): metallopeptide catalyst K3a,eRh2 and diazo reagent 1
Method: Binding the dirhodium center at positions a and e ensures that the metal will be held proximal to the coil-coil interface, and the a, e spacing serves to stabilize the necessary helical structure.
Covalent modification of variable residue g was then examined.
Relative modification rates (krel) were based on conversion at 1 hour, which corrects for catalyst loading and assumes first-order catalysis.

Fos = molecular target: T2, Fos (Homo sapiens, UniProt P01100, A167K/D174T/K188A/T181D); assay: Temperature-dependent folding of Fos-metallopeptide coiled coil; type: physicochemical; settings: Fos-Max(Rh2) temperature-dependent folding
T2 sequence (P01100 162-193 A167K/D174T/T181D/K188A limits assumed): T1 sequence (P01100 162-193 A167K/D174T/T181D/K188A limits assumed)
Method: Amazingly, site-specific reactivity can be templated on molecular recognition in interactions with such low affinities that they are uncharacterizable by available methods. Because metallopeptide Jun(Rh2) has ≧100 μM affinity for Fos, reactions at 10 μM successful even though the desired Fos-Jun(Rh2) dimer is not the major species.

[2] = 20 mol % K3a,eRh2, 10 mM diazo 1 added in two portions, 50 μM substrate, pH 6.2
[3] = 50 mol % K3a,eRh2, 10 mM diazo 1 added in two portions, 50 μM substrate, pH 6.2

Row | Compound | [θ]220, residual molar ellipticity [1] [deg cm^2 dmol-res^-1] | effect of dirhodium binding on helicity (in words) [1] | fH, helicity content [1] | Rel. Hel %, relative helicity [1] [%] | fH (TFE), helicity content [1] | krel, relative modification rate (K3a,eRh2) | other results
1 | Ac-YGKAAAADAAEAKAAAAK-NH2 [DE3] | -8000 | completely disrupt helicity | 29 | 52 | 32 |  | 
2 | CC[C@H](C)[C@H](NC(=O)[C@H](CCC(N)=O)NC(=O)[C@H](CCC(N)=O)NC(=O)[C@H](CCCNC(=N)N)NC(=O)[C@H](CC(C)C)NC(=O)[C@H](CO)NC(=O)[C@H](CC(N)=O)NC(=O)[C@H](C)NC(=O)[C@@H](NC(=O)[C@H](CO)NC(=O)[C@H](C)NC(=O)[C@H](CCC(=O)O)NC(=O)[C@H](CO)NC(=O)[C@H](CO)NC(=O)[C@@H](NC(=O)[C@H](CCC(=O)O)NC(=O)[C@H](C)NC(=O)[C@H](CCCCN)NC(=O)[C@H](CC(C)C)NC(=O)[C@@H](NC(=O)[C@H](CCCCN)NC(=O)[C@@H](NC(=O)[C@H](CCCNC(=N)N)NC(=O)[C@H](CCC(N)=O)NC(=O)[C@H](CCC(N)=O)NC(=O)[C@H](CC(C)C)NC(=O)[C@H](CCC(N)=O)NC(=O)[C@H](C)NC(=O)[C@H](C)NC(C)=O)C(C)C)[C@@H](C)O)[C@@H](C)CC)[C@@H](C)O)C(=O)N[C@@H](C)C(=O)N[C@@H](CCC(N)=O)C(=O)N[C@@H](CC(C)C)C(N)=O [Jun(Rh2)] (Ac-AAQLQQRVKTLKAEISSEASTANSLRQQIAQL-NH2; N-terminus and C-terminus assumed) |  |  |  |  |  |  | c-Fos residue modified (bZip domain of c-Fos): Gln19; solubility (Solubility on isolation): poor solubility
3 | NC(=O)CC[C@H](N)C(=O)O [Gln] |  |  |  |  |  | 260 | % conv. (K3a,eRh2; 10 mol % K3a,eRh2, reaction time 6 hours, 2.5 mM diazo 1, 50 μM substrate, pH 6.2): > 95%
4 | C[C@@H](O)[C@H](N)C(=O)O [Thr] |  |  |  |  |  |  | modification of variable residue (in words) (K3a,eRh2): not observed
5 | Ac-YGKAAAAEAGEAKAAAAK-NH2 [EE3G] | -2500 | becomes helical | 13 | 24 | 15 |  | 
6 | Ac-YGKAAAAEAADAKAAAAK-NH2 [ED3] | -11400 | completely disrupt helicity | 38 | 70 | 43 |  | 
7 | N[C@@H](CS)C(=O)O [Cys] |  |  |  |  |  | 560 | % conv. at 24 h (K3a,eRh2; 10 mol % K3a,eRh2, 2.5 mM diazo 1, 50 μM substrate, pH 6.2, room temperature): 78%
8 | Ac-YGKAAAAEAGAEKAAAAK-NH2 [EE4G] | -1900 |  | 12 | 21 | 13 |  | 
9 | Ac-KAEAAAEAK-NH2 [sEE4] | -400 |  | 9 | 13 | 8 |  | 
10 | Ac-YGKAAAADAGADKAAAAK-NH2 [DD4G] | -1100 |  | 9 | 17 | 11 |  | 
11 | Ac-YGKAAAADAADAKAAAAK-NH2 [DD3] | -5300 | completely disrupt helicity | 21 | 39 | 24 |  | 
12 | Ac-YGKAAAAEAGADKAAAAK-NH2 [ED4G] | -1100 |  | 9 | 17 | 10 |  | 
13 | Ac-YGKAAAAEAAEAKAAAAK-NH2 [EE3] | -11500 | increased helical | 39 | 70 | 44 |  | 
14 | N[C@@H](CCC(=O)O)C(=O)O [Glu] |  |  |  |  |  | 130 | % conv. at 24 h (K3a,eRh2; [2]): 76%
15 | NCCCC[C@H](N)C(=O)O [Lys] |  |  |  |  |  | 20 | % conv. at 24 h (K3a,eRh2; [3]): 8^g %; modification of variable residue (in words) (K3a,eRh2): modest conversion
16 | Ac-YGKAAAAEAAAEKAAAAK-NH2 [EE4] | -12300 | increased helicity | 41 | 75 | 46 |  | 
17 | N=C(N)NCCC[C@H](N)C(=O)O [Arg] |  |  |  |  |  | 100 | % conv. at 24 h (K3a,eRh2; [3]): 73%
18 | Max(Rh2): dirhodium metallopeptide based on the leucine-zipper Max (SEQ ID NO: 16) (ARRKNFTFQQNINNLKRQEALLEQQVRAL; also: dirhodium metal complex) |  |  |  |  |  |  | TM (Fos): 20 °C; conversion of c-Fos (bZip domain of c-Fos; 4° C.): 72%; c-Fos residue modified (bZip domain of c-Fos): both Glu14 and Glu21; conversion of c-Fos (bZip domain of c-Fos; −15° C.): 83%
19 | N[C@@H](CC(=O)O)C(=O)O [Asp] |  |  |  |  |  | 100 | % conv. at 24 h (K3a,eRh2; [2]): 53%; modification of variable residue (in words) (K3a,eRh2): modest conversion
20 | Ac-YGKAAAADAAADKAAAAK-NH2 [DD4] | -5700 | increased helicity | 22 | 41 | 25 |  | 
21 | N[C@@H](Cc1c[nH]cn1)C(=O)O [His] |  |  |  |  |  | 20 | % conv. at 24 h (K3a,eRh2; [3]): 17^g %; modification of variable residue (in words) (K3a,eRh2): modest conversion

— patent US8476407B2, “Metallopeptide catalysts” (William Marsh Rice University, priority 2009, dated 2013)
